Tests used:
[1] = molecular target: human CD96 short isoform v2 expressed on CHO cells (human) (UniProt P40200); assay: FCM, inhibition of hCD155-Fc binding to hCD96v2-CHO cells
[2] = molecular target: T1, hCD96-humanIgG1 fusion protein (human) (UniProt P40200); assay: SPR (Biacore), hCD96-hFc captured by anti-huFc
T1 sequence: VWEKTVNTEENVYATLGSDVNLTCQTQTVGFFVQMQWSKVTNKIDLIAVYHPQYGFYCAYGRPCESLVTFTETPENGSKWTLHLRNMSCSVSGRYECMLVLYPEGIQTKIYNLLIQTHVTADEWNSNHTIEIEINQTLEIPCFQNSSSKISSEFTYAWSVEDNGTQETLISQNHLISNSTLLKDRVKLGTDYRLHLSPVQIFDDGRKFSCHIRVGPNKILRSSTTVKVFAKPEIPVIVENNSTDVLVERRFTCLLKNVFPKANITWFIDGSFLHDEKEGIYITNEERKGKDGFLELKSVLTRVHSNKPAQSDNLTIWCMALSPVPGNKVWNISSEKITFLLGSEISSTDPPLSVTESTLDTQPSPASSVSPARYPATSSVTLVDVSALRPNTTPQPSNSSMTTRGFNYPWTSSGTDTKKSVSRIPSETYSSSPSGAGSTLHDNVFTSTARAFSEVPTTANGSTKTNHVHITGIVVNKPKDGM

[3] = molecular target: human CD96 short isoform v2 expressed on CHO cells (human) (UniProt P40200); assay: FCM on hCD96v2-CHO cells
[4] = molecular target: hCD226-His tagged protein transiently expressed on CHO cells (human) (UniProt Q15762); assay: FRET between anti-hCD226-PE (DX11) and anti-HA-APC by flow cytometry on CHO cells transfected with hCD96-HA and hCD226-His; right-hand plot; the left-hand plot of the panel prints FRET 0,22% (taken as the pooled negative control)
Chain of hCD226-His tagged protein transiently expressed on CHO cells (human) (Q15762 19-336): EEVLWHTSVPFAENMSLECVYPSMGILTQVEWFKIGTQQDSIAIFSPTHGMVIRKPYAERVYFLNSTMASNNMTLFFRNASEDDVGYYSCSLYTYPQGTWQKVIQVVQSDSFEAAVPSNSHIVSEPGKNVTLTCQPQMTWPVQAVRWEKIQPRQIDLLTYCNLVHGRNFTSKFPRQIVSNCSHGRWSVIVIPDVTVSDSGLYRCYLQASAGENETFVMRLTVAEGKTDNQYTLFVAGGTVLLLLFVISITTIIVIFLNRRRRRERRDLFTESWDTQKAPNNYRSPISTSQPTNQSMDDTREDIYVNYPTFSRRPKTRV

[5] = molecular target: hCD96-HA tagged protein transiently expressed on CHO cells (FRET assay) (human) (UniProt P40200); assay: FRET between anti-HA-PE and anti-HA-APC by flow cytometry on CHO cells transfected with hCD96-HA; right-hand plot; the left-hand plot of the panel prints FRET 0,10% (taken as the pooled negative control)

| Substance | IC50 [1] [nM] | Maximal Inhibition Capacity (%) [1] [%] | Kd [2] [nM] | koff [2] [s⁻¹] | kon [2] [M⁻¹ s⁻¹] | EC50 [3] [nM] | Maximum binding (delta MFI) [3] [delta MFI] | FRET (% of cells in the FRET gate) [4] [%] | FRET (% of cells in the FRET gate) [5] [%] |
| --- | --- | --- | --- | --- | --- | --- | --- | --- | --- |
| NK92.39 (antibody) | 10.4 | 100 | 3.24 | 0.000346 | 107000 | 1.59 | 283000 | – | – |
| clone 628211 (antibody) | 15.8 | 100 | – | – | – | 3.75 | 543000 | – | – |
| hCD96-HA tagged protein transiently expressed on CHO cells (FRET assay) (from UniProt P40200 22-585) (receptor) | – | – | – | – | – | – | – | 17.9 | 11.6 |

— patent US20230192845A1
